Experimental data taken from US20260193324A1.

Target: human GLP-1 receptor (GLP-1R) (human) (UniProt P43220)
Sequence of UniProt P43220 (P43220 24-463): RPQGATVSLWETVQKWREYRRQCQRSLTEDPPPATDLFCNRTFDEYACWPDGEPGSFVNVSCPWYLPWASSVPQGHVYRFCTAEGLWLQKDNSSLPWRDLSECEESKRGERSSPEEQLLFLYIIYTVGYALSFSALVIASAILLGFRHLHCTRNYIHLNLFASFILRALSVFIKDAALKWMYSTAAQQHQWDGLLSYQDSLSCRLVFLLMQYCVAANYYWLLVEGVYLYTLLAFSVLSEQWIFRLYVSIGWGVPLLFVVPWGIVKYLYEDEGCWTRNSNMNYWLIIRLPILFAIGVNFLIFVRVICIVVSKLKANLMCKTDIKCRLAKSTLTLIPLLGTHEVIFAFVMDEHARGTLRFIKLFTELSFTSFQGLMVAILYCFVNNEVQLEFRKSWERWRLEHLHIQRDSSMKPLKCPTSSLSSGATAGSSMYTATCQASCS

Q: With “GLP-1(7-37) peptide (from UniProt P01275 21-180)” as the substance, how does the EC50 (read off the curve), 4 hr stimulation read?
A: 1 nM
